Laboratory results published in the supplement of paper PMC10567573.

B1: INTS3 (parent)
chain: EEITEESLEESVGKPLYLIFRNLC
B2: HSP90AB1 (parent)
chain: YHTSQSGDEMTSLSEYVSRMKETQ
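Note: lentivirally expressed fusions sorted by FACS into six bins by GFP to DsRed ratio, PSI derived from sequencing read proportions per bin multiplied by bin number.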

Variants of: B1
Assay: protein stability index of a GFP-peptide fusion (GPS, HEK-293T) (PSI 1-6); higher = more stable
Conditions: c terminus: a fixed tail appended
EEITEESLEESVGKPLYLIFRNLQ [C24Q] showed a protein stability index of 2.19. Work on EEITEESLEESVGKPLYLIFRNLY [C24Y] yielded a protein stability index of 2.32. With EEITEESLEESVGKPLYLIFRNLV [C24V] the protein stability index was 1.68. In the case of EEITEESLEESVGKPLYLIFRNLW [C24W], the protein stability index is reported as 2.08. Variant EEITEESLEESVGKPLYLIFRNLP [C24P] has a protein stability index of 2.62. Variant EEITEESLEESVGKPLYLIFRNLS [C24S] has a protein stability index of 2.55. In the case of EEITEESLEESVGKPLYLIFRNLR [C24R], the protein stability index is reported as 3.02. For EEITEESLEESVGKPLYLIFRNLT [C24T], the protein stability index was 2.66.

Variants of: B2
Assay: as above
Conditions: c terminus: a fixed tail appended
Work on YHGSQSGDEMTSLSEYVSRMKETQ [T3G] yielded a protein stability index of 3.41. Variant YHRSQSGDEMTSLSEYVSRMKETQ [T3R] has a protein stability index of 3.8. With YHSSQSGDEMTSLSEYVSRMKETQ [T3S] the protein stability index was 3.58. For YHHSQSGDEMTSLSEYVSRMKETQ [T3H], the protein stability index was 3.67. Work on YHQSQSGDEMTSLSEYVSRMKETQ [T3Q] yielded a protein stability index of 3.66. Work on YHCSQSGDEMTSLSEYVSRMKETQ [T3C] yielded a protein stability index of 3.22. YHKSQSGDEMTSLSEYVSRMKETQ [T3K] gave a protein stability index of 3.48. For YHESQSGDEMTSLSEYVSRMKETQ [T3E], the protein stability index was 3.07. Work on YHFSQSGDEMTSLSEYVSRMKETQ [T3F] yielded a protein stability index of 2.96. With YHASQSGDEMTSLSEYVSRMKETQ [T3A] the protein stability index was 3.26. For YHPSQSGDEMTSLSEYVSRMKETQ [T3P], the protein stability index was 2.81. YHMSQSGDEMTSLSEYVSRMKETQ [T3M] showed a protein stability index of 3.12. YHISQSGDEMTSLSEYVSRMKETQ [T3I] showed a protein stability index of 3.18. For YHVSQSGDEMTSLSEYVSRMKETQ [T3V], the protein stability index was 2.96. Variant YHNSQSGDEMTSLSEYVSRMKETQ [T3N] has a protein stability index of 3.42. YHWSQSGDEMTSLSEYVSRMKETQ [T3W] gave a protein stability index of 1.53. Work on YHDSQSGDEMTSLSEYVSRMKETQ [T3D] yielded a protein stability index of 4.53. In the case of YHTSQSGDRMTSLSEYVSRMKETQ [E9R], the protein stability index is reported as 1.99. Variant YHTSQSGDDMTSLSEYVSRMKETQ [E9D] has a protein stability index of 3.79. YHTSQSGDTMTSLSEYVSRMKETQ [E9T] gave a protein stability index of 3.66. Variant YHTSQSGDSMTSLSEYVSRMKETQ [E9S] has a protein stability index of 2.91. Variant YHTSQSGDFMTSLSEYVSRMKETQ [E9F] has a protein stability index of 2.33. For YHTSQSGDVMTSLSEYVSRMKETQ [E9V], the protein stability index was 3.12. With YHTSQSGDIMTSLSEYVSRMKETQ [E9I] the protein stability index was 2.77. Variant YHTSQSGDLMTSLSEYVSRMKETQ [E9L] has a protein stability index of 2.09. For YHTSQSGDQMTSLSEYVSRMKETQ [E9Q], the protein stability index was 3.43. In the case of YHTSQSGDAMTSLSEYVSRMKETQ [E9A], the protein stability index is reported as 2.78. YHTSQSGDWMTSLSEYVSRMKETQ [E9W] showed a protein stability index of 1.87. For YHTSQSGDGMTSLSEYVSRMKETQ [E9G], the protein stability index was 3.67. With YHTSQSGDPMTSLSEYVSRMKETQ [E9P] the protein stability index was 3.51. With YHTSQSGDHMTSLSEYVSRMKETQ [E9H] the protein stability index was 3.11. YHTSQSGDCMTSLSEYVSRMKETQ [E9C] gave a protein stability index of 2.48. YHTSQSGDYMTSLSEYVSRMKETQ [E9Y] showed a protein stability index of 2.58. In the case of YHTSQSGDMMTSLSEYVSRMKETQ [E9M], the protein stability index is reported as 2.52. With YHTSQSGDEMDSLSEYVSRMKETQ [T11D] the protein stability index was 3.81. YHTSQSGDEMASLSEYVSRMKETQ [T11A] gave a protein stability index of 3.51. In the case of YHTSQSGDEMCSLSEYVSRMKETQ [T11C], the protein stability index is reported as 3.62. YHTSQSVDEMTSLSEYVSRMKETQ [G7V] showed a protein stability index of 3.26. Work on YHTSQSRDEMTSLSEYVSRMKETQ [G7R] yielded a protein stability index of 3.44. Work on YHTSQSHDEMTSLSEYVSRMKETQ [G7H] yielded a protein stability index of 3.65. YHTSQSNDEMTSLSEYVSRMKETQ [G7N] showed a protein stability index of 2.83. For YHTSQSDDEMTSLSEYVSRMKETQ [G7D], the protein stability index was 4.08. Variant YHTSQSIDEMTSLSEYVSRMKETQ [G7I] has a protein stability index of 3.29. Variant YHTSQSMDEMTSLSEYVSRMKETQ [G7M] has a protein stability index of 3.47. Variant YHTSQSYDEMTSLSEYVSRMKETQ [G7Y] has a protein stability index of 2.98. YHTSQSTDEMTSLSEYVSRMKETQ [G7T] gave a protein stability index of 4.32. YHTSQSWDEMTSLSEYVSRMKETQ [G7W] gave a protein stability index of 2.99. Work on YHTSQSQDEMTSLSEYVSRMKETQ [G7Q] yielded a protein stability index of 3.78. In the case of YHTSQSEDEMTSLSEYVSRMKETQ [G7E], the protein stability index is reported as 4.12. Work on YHTSQSCDEMTSLSEYVSRMKETQ [G7C] yielded a protein stability index of 3.33. With YHTSQSFDEMTSLSEYVSRMKETQ [G7F] the protein stability index was 3.17. YHTSQSSDEMTSLSEYVSRMKETQ [G7S] showed a protein stability index of 3.67. With YHTSQSADEMTSLSEYVSRMKETQ [G7A] the protein stability index was 3.73. With YHTSQSKDEMTSLSEYVSRMKETQ [G7K] the protein stability index was 3.33. For YHTSQSPDEMTSLSEYVSRMKETQ [G7P], the protein stability index was 3.74. YHTSQSLDEMTSLSEYVSRMKETQ [G7L] showed a protein stability index of 3.61. For YHTSQFGDEMTSLSEYVSRMKETQ [S6F], the protein stability index was 2.54. In the case of YHTSQTGDEMTSLSEYVSRMKETQ [S6T], the protein stability index is reported as 3.46. In the case of YHTSQEGDEMTSLSEYVSRMKETQ [S6E], the protein stability index is reported as 4.15. In the case of YHTSQNGDEMTSLSEYVSRMKETQ [S6N], the protein stability index is reported as 4.08. Work on YHTSQHGDEMTSLSEYVSRMKETQ [S6H] yielded a protein stability index of 2.91. YHTSQDGDEMTSLSEYVSRMKETQ [S6D] gave a protein stability index of 4.53. In the case of YHTSQLGDEMTSLSEYVSRMKETQ [S6L], the protein stability index is reported as 3.26. For YHTSQWGDEMTSLSEYVSRMKETQ [S6W], the protein stability index was 1.88. For YHTSQGGDEMTSLSEYVSRMKETQ [S6G], the protein stability index was 3.75. Work on YHTSQVGDEMTSLSEYVSRMKETQ [S6V] yielded a protein stability index of 3.21. In the case of YHTSQYGDEMTSLSEYVSRMKETQ [S6Y], the protein stability index is reported as 2.06. In the case of YHTSQRGDEMTSLSEYVSRMKETQ [S6R], the protein stability index is reported as 3.56. Work on YHTSQQGDEMTSLSEYVSRMKETQ [S6Q] yielded a protein stability index of 2.83. Work on YHTSQCGDEMTSLSEYVSRMKETQ [S6C] yielded a protein stability index of 3.22. In the case of YHTSQAGDEMTSLSEYVSRMKETQ [S6A], the protein stability index is reported as 3.54. YHTSQPGDEMTSLSEYVSRMKETQ [S6P] showed a protein stability index of 3.02. Variant YHTSQIGDEMTSLSEYVSRMKETQ [S6I] has a protein stability index of 2.98. In the case of YHTSQKGDEMTSLSEYVSRMKETQ [S6K], the protein stability index is reported as 3.03. For YHTSYSGDEMTSLSEYVSRMKETQ [Q5Y], the protein stability index was 3.21. With YHTSRSGDEMTSLSEYVSRMKETQ [Q5R] the protein stability index was 3. For YHTSCSGDEMTSLSEYVSRMKETQ [Q5C], the protein stability index was 3.17. YHTSNSGDEMTSLSEYVSRMKETQ [Q5N] gave a protein stability index of 3.39. In the case of YHTSESGDEMTSLSEYVSRMKETQ [Q5E], the protein stability index is reported as 3.79. In the case of YHTSASGDEMTSLSEYVSRMKETQ [Q5A], the protein stability index is reported as 3.66. For YHTSFSGDEMTSLSEYVSRMKETQ [Q5F], the protein stability index was 2.35. In the case of YHTSWSGDEMTSLSEYVSRMKETQ [Q5W], the protein stability index is reported as 1.98. Work on YHTSDSGDEMTSLSEYVSRMKETQ [Q5D] yielded a protein stability index of 4.45. Variant YHTSSSGDEMTSLSEYVSRMKETQ [Q5S] has a protein stability index of 3.55. Work on YHTSLSGDEMTSLSEYVSRMKETQ [Q5L] yielded a protein stability index of 2.83. Work on YHTSHSGDEMTSLSEYVSRMKETQ [Q5H] yielded a protein stability index of 3.67.
